What all share (format): biochemical
The nature of test [1]: LC-MS assay of GH3 conjugation of IAA with Asp or Glu. The conditions noted are these: LC-MS; for Detected auxin conjugates: IAA-Asp: IAA with Asp; for Detected auxin conjugates: IAA-Glu: IAA with Glu. In short, it runs like this: (§1)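 N-terminal His-tagged GH3 homologs, expressed in E. coli C41(DE3) and Ni-NTA purified, at 44 to 164 μg/mL incubated 3 h at 30 °C in 20 mM Tris-HCl pH 8.0, 5 mM MgCl2, 1 mM DTT, 5 mM ATP, 5 mM auxin (IAA, 2,4-D or dicamba) and 5 mM Asp or Glu. Conjugates quantified by LC-MS against standards after MeOH precipitation; kinetics from Michaelis-Menten fits of initial velocities.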

The nature of test [2]: LC-MS assay of GH3 conjugation of dicamba with Asp or Glu. The conditions noted are these: LC-MS; for Detected auxin conjugates: Dicamba-Asp: dicamba with Asp; for Detected auxin conjugates: Dicamba-Glu: dicamba with Glu. In short, it runs like this: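 GH3 superfamily homologs, found by Blast searches of public databases using AtGH3.17 (Q9FZ87), were synthesized with E. coli-optimized codons and an N-terminal his-tag, expressed in OverExpress C41(DE3) cells after 0.2 mM IPTG induction at 16° C., and Ni-NTA purified. Conjugation of dicamba with Asp or Glu was measured by LC-MS using conjugate standards.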

A short description of test [3]: LC-MS assay of GH3 conjugation of 2,4-D with Asp or Glu. Particulars: LC-MS; for Detected auxin conjugates: 2,4-D-Asp: 2,4-D with Asp; for Detected auxin conjugates: 2,4-D-Glu: 2,4-D with Glu. In short, it runs like this:
as §1

B1: Sm85812: GH3 protein, Selmo1|85812 (protein, listed as Selaginella moellendorffii)
chain: MHSICLKSMEHATKNAAVIQRELLQQILEKNAGTEYLTRHGLDEESNLVDGFHKLPLVEYNDIEADIKRIADGDTGRILCSDPISQFFISSGTTTGRSKLIPVTKEANSRFFRPPLISPAWHRVFTINPDETYLAFWFASKQSLTKGGFKAETVTTSGLNSAHFKRAAASFVTPHKIFQSTSMYQCLYCHLLCGLLRREEVTVVISAFAFALTEAFRVLEQVWSELLEDIEAGSLSSRITDPILRLAMSGIAPPSPELAEQLRREFRSFSMDGIVQRLWPNAKSVVAVTTGAMAPYAPRLRALAGKTPLVCGNYFSSECLIGINLSPASSPATFTVNPEFAYFEFLSYHDGETKLNGLEEQRPVGLTEVTIGEKYEIVVTTRSGLYRYRLGDVVQVAGFFNSSPSLRFLFRRNVVMSVATDKTDEFELQAVVHKASLLLRSSSQLHDFAGYADFSSIPGHYAIFWELNHGGSMDPSTLQDCCELLDVSLNDPYLRGRSSGAIGPLKLCVVRGGSFRELFEQHVARGGSGSQYKSCRCVASKQAIDLLRRNTLQQALSSKFPNPWKLSIKSLELDQ
Turning to B1, in test [1], the “Detected auxin conjugates: IAA-Asp” value is recorded as “Yes” and the “Detected auxin conjugates: IAA-Glu” value is “No”. Besides, in test [2], the “Detected auxin conjugates: Dicamba-Asp” value is “No” and the “Detected auxin conjugates: Dicamba-Glu” value is listed as “No”. In test [3], the “Detected auxin conjugates: 2,4-D-Asp” value is “No” and the “Detected auxin conjugates: 2,4-D-Glu” value was “No”.

B2: Br008836: GH3 protein, Bra008836 (protein, listed as Brassica rapa)
chain: MKPISNNDETWDATLKDLTSNVKEIQDNVLEEIITPNLKTEYLQRFNMDRFDKKLFKKNVPVVSYEDIKPDIDRVVNGESSDVISARPITGFLLSSGTSGGAQKMMPWNNKYLDNLTFAYDLRMHVITKHVKGLEEGKGMMFLFTKQETKTPSGLLARVATSSYFKSDYFTNRPSNWYYSYTSPDEVILCSNNTQSLYCHLLCGLLQRDEVVRMGSIFASVMVRAIKFLETYWEELCSNIRSGRLSEWITDLGCRSSVSLVLGGPRPDLADTIETICNQSSWKGIVTRIWPNTKYIETVVTGSMGQYVPTLNYYCSDLPLVSTTYGSSETTFGINVDPLCKPEDVSYAFMPNMSYFEFITMDGEKRDVVDLHDVKIGCTYEPVVTNFAGLYRMRVGDVLLVTGFYNNAPQFRFVRRENVVLSIDSDKTNEEDLFKAVSQAKLVLDSSDLFLEDFTSYADTSTFPGHYVIYVEVKAKGGNNHLELNEEVFSKCCSVMEDSLDNVYKRCRFKDGSVGPLEIRVVDKGTFESLMDFFINQGASTGQYKTPRCIKSGKALELMEDRVVAKFFSS
With B2, in test [1], the “Detected auxin conjugates: IAA-Asp” value was “Yes” and the “Detected auxin conjugates: IAA-Glu” value is listed as “Yes”. For the same molecule, in test [2], the “Detected auxin conjugates: Dicamba-Asp” value is recorded as “No” and the “Detected auxin conjugates: Dicamba-Glu” value is on record as “No”. Also, in test [3], the “Detected auxin conjugates: 2,4-D-Asp” value was “Yes” and the “Detected auxin conjugates: 2,4-D-Glu” value is recorded as “Yes”.

B3: Br031718: GH3 protein, Bra031718 (protein, listed as Brassica rapa)
chain: MSLGCDLSVLEELTSNAKQIQDDVLTKILKANTNTEYLSRFLEGSSEKELFKKNVPVVSYEDVKPYIDRVANGEPSDILSGKPITAFFRSTGTSSGEKKIFPANDNFEDILLGLALSSLVMSKHVDGYKQGKVMIFKFIQPISTTPCGLPLAPSITIIMKSKCYRSPGKRSTTPDEIIMCTDPKQSMYCQLLCGLVQRDEVVSVGALFASVLVQIIRFLEKYWKELCSNIRSGHVSDWITDHCCRDSVSTILGEPNPELADLIENECGQESWQGIVSRLWPKTKCVETIVTGIMAQYIPALEFYSDKLPIVSSIYGSSETFFGLNVNPLCKPQHVSYTFLPNMSYFEFIHVDADGEATGEIVDLVDVKSGGYYEPLVTNYSGLYRCRVGDVLHVTGFYNNAPQFRFVRRKNTVLSIFVESTTEEDVLKALDRATVVLESSDLMLTGFTCFGDVSTVPGHYVFYLELKAKVNNDTNVLLLDEKVLVEYCCVMEESLSSFYRSLRRKDGPIGPLEVRVVQQGTFDSLMEFFVSRGASITQYKTPICINSVEASRVLEDKVLARFFSDKSPTI
Turning to B3, in test [1], the “Detected auxin conjugates: IAA-Asp” value was “No” and the “Detected auxin conjugates: IAA-Glu” value was “No”. Besides, in test [2], the “Detected auxin conjugates: Dicamba-Asp” value is “No” and the “Detected auxin conjugates: Dicamba-Glu” value is “No”. In test [3], the “Detected auxin conjugates: 2,4-D-Asp” value is “No” and the “Detected auxin conjugates: 2,4-D-Glu” value was “No”.

B4: Sm87623: GH3 protein, Selmo1|87623 (protein, listed as Selaginella moellendorffii)
chain: MDATAILSAIACDEQALGFMEHVTRHVSSVQDYVLQLLLEANAGTDYFQRHGLYGIPTKEEFRRLLPITTYSDMEADFQRLANGDESKTICAARVLEMLTSSGTSGGKQKLFPKSPSYDQEFVALNRVARAALNKKAPYASRGKSLQFFYVRKPGITSGGVTTTSGLSGYFTSPAFRQRKLDPESGYTSPDQVILCVDYQQASYCHLLCGLTQSQEVVSIGAPFASTLVRSLKALKDLWQELCVDIETGRVNDNIVSDLSVKHAVNALLKPDPKLAALVRRECSKSNWRGIVRRLWPRARIIQAIVTGSMQQYVPAIDFFSDGLPIASSIYAASECSTLGVNLSPVCSPYDVRYSPFPCFVYYEFLPVSSSSSSSPRRDDLVQLAEVELGREYELVITTRAGLYRYRVGDVLKVVGFKNSMPQFSFVGRAGVLLSVDTDKTDEVELHTAVTTAAAVMAKRNRGDVRLLDYTSRVNLSSQPGHYVVYWELSLDAAMESLEAELRECCSVMEESLSVVYRRNRREGSVGALEIKVVEPGTFDRIVDHVVFVGQGSIGQYKTPRCARDPAVLRILESSVVESSRAR
For B4, in test [1], the “Detected auxin conjugates: IAA-Asp” value was “Yes” and the “Detected auxin conjugates: IAA-Glu” value is listed as “No”. Besides, in test [2], the “Detected auxin conjugates: Dicamba-Asp” value is “No” and the “Detected auxin conjugates: Dicamba-Glu” value was “No”. For the same molecule, in test [3], the “Detected auxin conjugates: 2,4-D-Asp” value is listed as “Yes” and the “Detected auxin conjugates: 2,4-D-Glu” value is “No”.

B5: Sm93250: GH3 protein, Selmo1|93250 (protein, listed as Selaginella moellendorffii)
chain: MDPALFRDDIESKTKDAAAVQANLLSQMMELNGETEYLRRYGGRFDSLPIIEYHDVADEVQRIANGDTSPILTAEPVVRFFKSSGTVTGEPKLIPATSKSLELLFRRPVYMMESDVCLGFLFAKPENKSPGGLPVSTTSSMFFKVQGENLEKMFTSPMKLLLAPDINQSLYCQLLCGLIRSEDVTQVFAALAITLVEALRLLEEAWSELADDVQTGTLNSKITDPTLRSSLSLCLRPNLKLAQSIRKECTADNAWCGIVERLWPKTKVIVTITTGGMAPYAPAVRKYGGSVPIVSGDYVCTECVLGFNLDPFCPPESVSFTIHPEYAYYEFLHYPQKLTDGSTVKLVDVKVGEEYELVVSTWSGLYRYKVGDIVRVTGFHNFSPNISFVHRLNAELDIAGERSTEAELQVAVQKSQHCLPASQELVDFTCHQDGQRYLIFWEIKNGDSLNPMILETCCCVLDTSLTERYKQRRENGLIGPLRLCIVRGKTFKALQQYSLEKGINPTQYKTPRCITSPEMIAILQAGITQDCQTPA
Turning to B5, in test [1], the “Detected auxin conjugates: IAA-Asp” value is recorded as “Yes” and the “Detected auxin conjugates: IAA-Glu” value is listed as “No”. Also, in test [2], the “Detected auxin conjugates: Dicamba-Asp” value is reported as “No” and the “Detected auxin conjugates: Dicamba-Glu” value is “No”. Also, in test [3], the “Detected auxin conjugates: 2,4-D-Asp” value is “No” and the “Detected auxin conjugates: 2,4-D-Glu” value was “No”.

B6: Br040812: GH3 protein, Bra040812 (protein, listed as Brassica rapa)
chain: MSSIVELSSLEELTLNAEQIQDDLLEKILRLNSNTEYLRRFLHGSNDKELFKKNVPLANYEDVKPYIERVANGEPSDLISGGPVTRFFRSSGTSGGKQKIFPVNDEAIEQLGYVLALRSLVMSKHFSDNGVEQGKTMEFHYTKPESTTPSGLPVAAAFTSFFKSDYFKNRPSKSQYTSPDQVILCPDNKQSLYCHLLCGLSQRDEVVRFGATFAHALVRAIDFLESNWKELCGNIRLGHVSEWITDLGCRSSVSAIIGGPNPELADLIEQECSHKSWEGIVTRLWPKAKRIECVLTGQMAQYIPILDFYCNKLPLVSTVYGSSESIFGFNVDPLCKPQDVSYTFVPNTSYFEFLPVDHEGDMTSIVDLVNVKLGCYYEPVVTTCFGLNRYLIGDILEVTGFYNNTPQFRFVRRKNMVLSVETETTTEDDILKALARATFVLESSNLMLMDFTSSADISTFPGHYVFYWELKGKEVNDVLVLDEKTLMGCCYVLEESFGSTYRLKRRTGLIGALEIRVVEQGTFNSLTDYFISRGSSRAQYKTPLCINSSEASAVLENKVLARFHSEKSPPLDL
Take B6: in test [1], the “Detected auxin conjugates: IAA-Asp” value was “Yes” and the “Detected auxin conjugates: IAA-Glu” value is given as “Yes”. In addition, in test [2], the “Detected auxin conjugates: Dicamba-Asp” value is recorded as “No” and the “Detected auxin conjugates: Dicamba-Glu” value is on record as “No”. In test [3], the “Detected auxin conjugates: 2,4-D-Asp” value is listed as “Yes” and the “Detected auxin conjugates: 2,4-D-Glu” value was “Yes”.

B7: Br029173: GH3 protein, Bra029173 (protein, listed as Brassica rapa)
chain: MSMWADLSDKLDEKVLEDLTSNVKQMQDDVLKEILTLNANTEYLRPFLHGSSDKELFKKNVPVTTYDDVKLFIDRVANGEPFDVISGKPVTGFSLSSGTSGGKRKMFPCNKKYLENLNFIYCYRSLVISKHFDGLEHGKGMVFNFCVPEQTTPSGLPVSAATTLFFKSDYFKNRPSYWHWSFTSPDEVILCLDNKQSLYCHLLCGIVLRDEVVKVGTAFVSTLLRVITFLEKHWKEICTNIRYGHLSEWITDISCRDSVSKILGEPNPELADLIENECNQKSWEGIIQRLWPKTKFIESIATGQMAQHIPTLEFYSNKLPLISSSYVSSETMFGININPLCKPQDVSYTFMPHFSYFEFLLVDAGDEVEIVDLVDVKLGCHYETLVTNHSGLHRYKMGDIVQVTGFYNNAPQFRFARRGNLVLSVHMEITTDQALLNAVTHAKMVLESSNLMLMDFTGYADISTTPGHYVLYWELKGKYSNDIAKIDDKVLVECCYVVEESLDNFYKEYRKNGSIGALEIRVVQQGTFDSLMEFFISQGASSTQYKTPICIKSTEAIAILERKVRARFFTDKSLSLKFSS
For B7, in test [1], the “Detected auxin conjugates: IAA-Asp” value is listed as “Yes” and the “Detected auxin conjugates: IAA-Glu” value was “Yes”. Moreover, in test [2], the “Detected auxin conjugates: Dicamba-Asp” value is listed as “No” and the “Detected auxin conjugates: Dicamba-Glu” value is given as “No”. For the same molecule, in test [3], the “Detected auxin conjugates: 2,4-D-Asp” value is “Yes” and the “Detected auxin conjugates: 2,4-D-Glu” value was “Yes”.
